Sequences and labels used below:
B1: human Ube2T (enzyme, UniProt Q9NPD8 1-197, looked up)
chain: MQRASRLKRELHMLATEPPPGITCWQDKDQMDDLRAQILGGANTPYEKGVFKLEVIIPERYPFEPPQIRFLTPIYHPNIDSAGRICLDVLKLPPKGAWRPSLNIATVLTSIQLLMSEPNPDDPLMADISSEFKYNKPAFLKNARQWTEKHARQKQKADEEEMLDNLPEAGDSRVHNSTQKRKASQLVGIEKKFHPDV
B2: human FANCL RING domain (residues 289-375) (domain or fragment, UniProt Q9NW38 289-375, looked up)
chain: EIDFPARAILEKSDFTMDCGICYAYQLDGTIPDQVCDNSQCGQPFHQICLYEWLRGLLTSRQSFNIIFGECPYCSKPITLKMSGRKH

In test [1] the target is human FANCL RING domain (residues 289-375) (human) (UniProt Q9NW38). Put plainly: ITC. In general terms: In ITC the heat of successive injections is recorded.
The target of test [2] is B2. As to the kind of experiment: SEC.
Test [3] has as its target B1. Put plainly: ITC.

For “Ube2T-F63A (from UniProt Q9NPD8 1-197) (enzyme)”, in test [1], the Kd – broadly, the concentration at which binding is half-saturated – is 5000 nM.

Regarding B1, the stoichiometry N (commonly the number of molecules, sites or subunits per partner or assembly) in test [2] worked out at 1.

Molecule B2 had a Kd in test [3] of 454 nM.
